According to patent US20070190054A1:

How the values were obtained:
[1] = target: murine C3 or a fragment of C3, deposited on particles opsonized with mouse serum (mouse) (UniProt P01027); experiment: cell-based or functional assay
[2] = target: C3b dimers (C3b2) (human) (UniProt P01024); experiment: SPR, CRIg-Fc captured on a CM5 chip via an antibody to the Fc tag, dimeric C3b injected, response at equilibrium
[3] = target: C3b (purified; species not stated in Examples 12, 13, 19, 20) (UniProt P01024); experiment: ELISA; details: Fc fusion
[4] = target: murine C3 or a fragment of C3, deposited on particles opsonized with mouse serum (mouse) (UniProt P01027); experiment: flow cytometry; details: Fc fusion
Target sequence in this assay (P01027 25-666, chain 1 of 2): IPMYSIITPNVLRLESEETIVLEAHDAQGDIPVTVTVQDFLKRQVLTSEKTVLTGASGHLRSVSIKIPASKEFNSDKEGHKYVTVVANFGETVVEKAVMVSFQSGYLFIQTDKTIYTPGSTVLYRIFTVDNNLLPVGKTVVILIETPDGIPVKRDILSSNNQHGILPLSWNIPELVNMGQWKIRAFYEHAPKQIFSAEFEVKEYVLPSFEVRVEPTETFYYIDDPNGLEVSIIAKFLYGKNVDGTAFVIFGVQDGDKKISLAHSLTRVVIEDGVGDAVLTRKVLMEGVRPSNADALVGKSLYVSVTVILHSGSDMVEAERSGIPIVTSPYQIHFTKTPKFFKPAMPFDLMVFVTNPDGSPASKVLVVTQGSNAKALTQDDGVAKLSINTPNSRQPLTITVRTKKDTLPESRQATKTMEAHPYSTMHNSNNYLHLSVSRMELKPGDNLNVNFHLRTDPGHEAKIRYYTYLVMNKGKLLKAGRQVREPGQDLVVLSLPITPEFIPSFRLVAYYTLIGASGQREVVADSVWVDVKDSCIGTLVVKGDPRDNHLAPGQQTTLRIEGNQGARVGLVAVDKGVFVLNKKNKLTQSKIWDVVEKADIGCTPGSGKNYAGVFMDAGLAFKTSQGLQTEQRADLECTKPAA
Target sequence in this assay (P01027 749-1663, chain 2 of 2): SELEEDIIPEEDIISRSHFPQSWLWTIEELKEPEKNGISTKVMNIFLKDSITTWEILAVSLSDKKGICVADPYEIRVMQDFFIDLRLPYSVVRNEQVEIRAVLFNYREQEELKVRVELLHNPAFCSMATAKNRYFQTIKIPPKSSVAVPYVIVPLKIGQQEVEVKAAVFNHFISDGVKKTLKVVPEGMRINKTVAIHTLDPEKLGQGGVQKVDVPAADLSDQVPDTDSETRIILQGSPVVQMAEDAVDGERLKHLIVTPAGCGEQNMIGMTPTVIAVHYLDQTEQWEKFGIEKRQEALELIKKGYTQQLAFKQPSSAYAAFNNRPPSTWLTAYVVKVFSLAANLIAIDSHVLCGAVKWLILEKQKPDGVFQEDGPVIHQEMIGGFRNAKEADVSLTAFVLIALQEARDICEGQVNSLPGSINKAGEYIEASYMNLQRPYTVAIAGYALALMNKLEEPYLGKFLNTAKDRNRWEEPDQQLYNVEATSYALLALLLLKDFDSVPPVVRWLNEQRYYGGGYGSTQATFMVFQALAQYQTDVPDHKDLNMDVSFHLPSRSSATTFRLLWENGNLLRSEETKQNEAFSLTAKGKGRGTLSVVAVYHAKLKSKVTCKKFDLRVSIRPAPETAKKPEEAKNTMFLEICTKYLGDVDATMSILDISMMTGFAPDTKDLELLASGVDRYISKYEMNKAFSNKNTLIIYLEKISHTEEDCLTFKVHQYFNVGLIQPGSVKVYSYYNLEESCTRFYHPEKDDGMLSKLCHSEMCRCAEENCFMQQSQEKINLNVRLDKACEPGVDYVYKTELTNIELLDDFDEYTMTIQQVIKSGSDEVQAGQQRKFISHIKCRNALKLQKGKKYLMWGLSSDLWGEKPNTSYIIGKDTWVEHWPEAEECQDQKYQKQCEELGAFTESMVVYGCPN

Kd [2]	Kd [3]	Substance	other results
–	–	complement receptor 3 (CR3) on mouse Kupffer cells (from UniProt P05555 17-1153; P11835 24-771)	further reduction in rosette formation with the addition of CR3 blocking antibody [1]: < 20%
131 nM	–	huCRIg(L)-Fc fusion protein (from UniProt Q9Y279 20-283)	–
44 nM	–	huCRIg(S)-Fc fusion protein (from UniProt Q9Y279 20-283)	–
–	75 nM	human CRIg-Fc fusion protein (long or short form not specified) (from UniProt Q9Y279 20-283)	–
–	–	murine CRIg expressed on the cell surface (receptor)	reduction in E-IgM rosetting of CRIg ko KCs compared to CRIg wt KCs [1]: 60%
–	50 nM	murine CRIg-Fc fusion protein	Kd [4]: 17 nM
